Assay results as given in the nanobody polyreactivity screen of Harvey et al. (2022).

Test: yeast display, Sf9 membrane polyspecificity reagent, FACS + sequencing; frameworks hold sequencing errors
How it was run: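 After 36–48 hours of galactose induction, yeast (Saccharomyces cerevisiae BJ5465) displaying a synthetic nanobody library were stained at 4 °C for 1 hour with 10% biotinylated, detergent-solubilized Sf9 membrane reagent. Streptavidin microbeads enriched the stained cells before FACS sorting into low and high (top ~1%) gates on anti-HA and streptavidin fluorescence. Each clone's polyreactivity label reflects its gate of origin.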

| Sequence | polyreactivity (PSR sort gate) |
| --- | --- |
| QVQLVESGGGLVQAGGSLRLSCAASGRIFFYYAMGWYRQAPGKERELVAAISQSGGSSYYADSVKGRFTISRDNAKNTVYLQLTSLKPEDTAVYYCAADDRYYTYGYDYWGQGTQVTVSS | low polyreactivity |
| QVQLVESGGGLVQAGGSLRLSCAASGSTFNYNAMGWYRPAPRKERELVAAITWNSGSTYYADSVKGRFTISRDNAKNTVYLQMNSLKQEDTAVYSCAADFTIPYWDAKFDYWGQGTQVTVSS | low polyreactivity |
| QVQLVESGGGLVQAGGSLRLSCAASGSTFESNAMGWYRQAPGKERELVASISGSGGSTFYADSVKGRFTISRDNAKNTVYLQMNSLKPEDTAVYYCNRGRDEYDYWGQGTQVTVSS | low polyreactivity |
| QVQLVESGGGLVQAGGSLRLSCAASGNAMGWYRQAPGNERELVAAITRRGGSTYYADSVKGRFTISRDNAKNTVYLQMNSLKPEDTAVYYCAADNPSYNLWYGYWGQGTQVTVSS | low polyreactivity |
| QVQLVESGGGLVQAGGSLRLICAASGITFPINTKGWYRQAPGKERELVAGIDWTGGSTYYADSVKGRFTISRDNAKNTVYLQMNSLKPEDTAVYYCAAEFFREGSPRAGSKMDYWGQGTQVTVSS | low polyreactivity |
| QVQLVESRGGLVQAGGSLRLSCAASGFIFKTNAMGWYRQAPVKERELVAAISNSDGSTYYADSVKGRFTISRDNAKNTVYLQMNSLKPEDTAVYYCAADRTDFWPYDYWGQGTQVTVSS | low polyreactivity |
| QVQLVESGGGLVQAGGSLRLSCAASGSILKGYALGWYRQAPGKERELVAAITSSGGRTYYADSVKGRFTISRDNAKNTVYLQMNSLKPEDTAVYYCNALGGQWARYDYWGQGTQVTVSS | high polyreactivity |
| QVQLVESGGGLVQAGGSLRLSCAASGSIFYSNAMGWYRQAPGNERELVAAITYRGGRTYYADSVKGRFTISRDNAKNTVYLQKNSLKPEDTAVDYCAKVVRAQALDSIYNGRYDYWGEGTQVTVSS | low polyreactivity |
| QVQLVESGGCLVQAGGSLSLSCAASGSTFPYPYTIGWYRQAPGKERELVAVISRTGGSTFYADSVKGRFTISRDNAKNTVFLQINSLKPEDTAVYYCARQRYEYRTTYYYWGLGTQVTVSS | high polyreactivity |
| QDQLVESGGGLVQEGGSLRLSCAASGSIFARNAMGWYRQAPGKERELVAAISRSGGSTYYADSVKGRFTISRDNAKNTVYVQMNSMKPEDTAVYFCNAVQRYSQGDYWGHGTQVTVSS | high polyreactivity |
| QVQLVESGGGLVQAGGSLRLSCAASGRTFKKYTMGWYRQAPGKERELVAVITSGGSTYYADSVKGRFTISRDNAKNTVYLQMNSLKPEDTAVYYCATKASYKGDYWGQGTQVTVSS | high polyreactivity |
| QVQLVDSGGGLVQAGGSLRLSCAASGSNFVWYAMGWYIQAPGKEREMVAAITWSGGSTYYADSVKGRFTISRDNAKNTVYLPMNSLKPEDSAVYYFNAVSYRYYSKLGSWGQGTQVTLSS | high polyreactivity |
| QVQLVESGGGLVQAGGSLRVSCAASGNSFTGYVMGWYRQAPGKERELVAAIRSGGSTYYADSVKGRFRISRDNAKNTVYLQMTSLKPEDTAVYYCNARYRYRLRGYDYWGQGTQVTVSS | high polyreactivity |
| QVQLVESGGGLVQARGSLRLSCAASGFIFSYYAMGWYRQAPGKERELVAAISSSGGTTYADSVKGRFTISRDNAKNTVYLQMNSLKPEDTAVYYCARVQYWFYKPMYYWGQGTQVTVSS | high polyreactivity |
| QVQLVESGGCLVQAGGSLRLSCAASGRTFVGYVMGWSRQAPGKERELVAAIRTGGRTHYADSVKGRFTISRDNAKNTVYLQMNSLKPEDTAVYYCNARASYSWHGIRGNYDYWGQGTQVTVSS | high polyreactivity |
| QVQLVESGGGLVQAGGSLRLSCAASGRIITGYAMGWYRQAPGKERELVAAISRGGSTNYADSVKGRFTISRDNAKNTVYLQMNSLKPEDTAVYYCAAGVHWDRGDYWGQGTQVTVSS | low polyreactivity |
| QVQLVESGGGLVQAGGSLRLICAASGRIFYRNAMGWYRQAPGKERELVAAISGATSTYYADSVKGRFTFSRDNAKNTVYLQMNSLKREDTAVYYCAAKIIWYTIRHGSAGFNYWGQGTQVTVSS | high polyreactivity |
| QVQLVESGGGLVQAGGSLRLSCAASGFTFYTNAMGWYRQATGKERELVAVITSGGNTYYADSVKGRFTISRDNAKYTVYLQMNSLKPEDTAVYYCAAKPKRPIRFDYWGQGTQVTVSS | high polyreactivity |
| QVQLVESGGGLVQAGGSLRLSCAASGRTFVSYAMGWYRQAPGKERELVAAISSSGGSTYYADSVKGRFTISRDNAKNTVYLQMNSLKPEDTAVYYCAADTTTRAYVEMDYWGQGTQVTVSS | low polyreactivity |
| QVQLVESGGGLVQAGGSLRLSCAASGFIFNRYAMGWYRQAPGKERELVADITGGSTYYADSVKGRFTISRDNAKNTVYLQMNSLKPEDTAVYYCAADVLRISTQLFRGPGFDSWGQGTQVTVSS | low polyreactivity |
| QVQLVETGGGLVQAGGSLSLSCAASGSILDLNAMGWYRQAPGKERELVAAISSGGGTYYADSVKGRFTISRDNAKNTVYLQMNSLKPEDTAVYYCNRVTRWTYNYWGQGTQVTVSS | high polyreactivity |
| QVQLVESGGGLVQAGGSLRLSCAASGRIFTSYAMGWYRQAPGKERELVAAISGSSASTYYADSVKGRFTISRDNAKNTVYLQMNSLKPEDTAVYYCAAYKYDYRVDTGYDYWGQGTQVTVSS | low polyreactivity |

| Sequence | polyreactivity (PSR sort gate) |
| --- | --- |
| QVHLVESRGRLVQAGGSLRLSCAASGSIFEPNAMGWYRQAPGKEREFVAAISGSGGSTYYADSVKARFTISRDNAKNTVYLQMNSRNPEDTAVYYCATRGKRSYFRTFYYWGQATQVTVSS | high polyreactivity |
| QVQLVETPGGLVQAGGSLRLSCAASGRIFAYNAMGWYRQEPGNERELVAAIDSGGDTNYADSVKGRFTISRDNAKNTVYLKMNSLKPEVTAVYYCWSRAAPPGWFYGTNDNYWGQGTQVTVSS | low polyreactivity |
| QVQLVESGGGLVQAGGSLRLSCASSGSISYYAMGWYRQAPGKERELVAAISSGGSTYYADSVKGRFTISRDNAKNTVYLQMNSLKPEDTAVYYCAVRYIIRGYATRYYYWGQGTQVTVSS | high polyreactivity |
| QVQLVESGGGLVQAGGSLRLSCAASGRTFGVYVMGWYRQAPGKERELVAAIRIGDSTNYADSVKGRFTISRDNAKNTVYLQMNSLKPEDTAVYYCNAYRVRYTVDSVFYGYDYWGQGTQVTVSS | high polyreactivity |
| QVQLVESGGGLVQAGGSLRLICAASGSIFAGNAMGWYRQAPGKERELVADITSGDSTYYADSVKGRFTISRDNAKNTVYLQMNSLKPEDTAVYYCAADSWDSQVVSYEYWGQGTQVTVSS | low polyreactivity |
| QDQLVESGGGLVQAGGSLRLSCAAYGIIFWDNAMGWYRQAPGKERELVASINYSGGSTYYADSVKGRFTISRDNAKNTVYLQMYSLKPEDTAVYYCAARTVTLDDWDYAYDYWGQGTQVTVSS | low polyreactivity |
| QVQLVESGGGLFQAGGSLRLSCAASGSIFVGYAMGWYRQAPGKERELVAAITNSGGRTYYADSVKGRFTISRDNAKNTVYLQMNSLKPEDTAVYYCNRVTGKYRYWVGFEYWGQGTQVTVSS | high polyreactivity |
| QVQLVESGGGLVKAGGSLRLSCAASGNIFTSNAMGWYRQAPGKERELVAAITSGGSTYYADSVKGRFTISRDNAKNTVYLQMNSLKPEDTAVYYCATLPRPHLRPYYYWGQGTQVTVSS | high polyreactivity |
| QVQLVESGGGLVQAGGSLRLSCAASGSTFHTNSMGGYRQAPGKETELVAAIRSGGGTNYADSVKGRFTISRDNAKNTVYLQMNSLKPEDTAVYYCNASPLPYSHRGDYWGQGTQVTVSS | low polyreactivity |
| QVQLVESGGVLVQAGGSLRLSCAASGFIFYSYDMGWYRQAPGKERELDAAIRSDGSTYYADTVKGRFTISRDNAKNTVYLQMYSLKPEDTAVYDCAAKYGVRYWHYYSWTNDYWGQGTQVTVSS | low polyreactivity |
| QVQLVESGGGLVQAGGSLRLSCAASGSIFLRNAMGWSRQAPGKERELVAAISRSGGRTYYADSVKGRFTISRDNAKNTVYLQMNSLKPEDTAVYYCAADWADKYTGRYDYWGQGTQVTVSS | high polyreactivity |
| QVQLVESGGGLVQAGGSLRLSCAASGSTFPSYAMGWYRQAPGKERELVAVITSGGRTYYADSVKGRFTISRDNAKNTVYLQMNSLKPEDTAVYYCAARGHRGYQGYDYWGQGTPVTVSS | high polyreactivity |
| QVQLVESGGGLVQAGGSLRLSCAASGRTSDEYAMGWYRPAPGKERELVAAITSGGSTNYADSVKGRFTISRDNAKNTVYLQMNSLKPEDTAVYYCAADNIRTWRPIYDYWGQGTQVTVSS | low polyreactivity |
| QVQLVESGGGLVQAGGSLRLSCAASGSTLPYYAMGWYRQAPGKEWELVAAITSSGGDTYYADSVKGRFTISRDNAKNTVYLQMNSLKTEDTAVYYCAKSYSARSTVRKLFYFAYDYWGQGTQVTVSS | low polyreactivity |
| QVQLVESGGGLVQAGGSLRLSCAASGFTFRKYTMGWYRQAPGKERELVAAITNSGTSTYYADSVKGRFTISRDNAKNTVYLQMNSLKPEDTAVYYCARDNEPDYYSYPYDYWGQGTQVTVSS | low polyreactivity |
| QVQLVESGGGLVQAGGSLRLSCAASGRIFRINAMGWYRQAPGKERELVASISRRGGNTYYADSVKGRFTISRDNAKNTVYLQMNSLKPEDTAVYYCAADTNQERTFDYWGQGTQVTVSS | low polyreactivity |
| QVQLVESRAGLVQAGGSLRLSCAASGSTRNRNVMGWYRPAPGKERELVAVITYGVGSTYYADSVKGRFTISRDNAKNTVYLQMNSLKPEDTAVYYCNKDPLVFDYWAQGTQVTVSS | low polyreactivity |
| QVQLVESGGGLVQAGGSLRLSCAASGFTFSPYAMGGYRKAPGKERELVAAISSSGGSTYYADSVKGRFTISRDNAKNTVYLQMNSLKPEDTAVYYCATQGTRRPGKFYYWGQGTQVPVSS | high polyreactivity |
| QVQLVESGGGLVQAGGSLRLSCAASGRILEGYSMGWYRQAPGKERELVAAISFSTTTTYYADSVKGRFTISRDNAKNTVYVQMNILKPEDTAVYYCAADSQQSDYDYWGQGTQVTVSS | high polyreactivity |
| QVQLVESGGGLVQEGGRLRLSCAASGITFRYYAMGWYRQAPGKERELVAAISWGGGSTYYADSVKGRFTISRDNATNTVYLQMNSLKPEDTAVYYCNARGSVRPYGPRATLDYWGQGTQVTVSS | high polyreactivity |
| QVQLVESGGGLVQAGGSLRLSCAASGFTFTDYAMGWYRQAPAKERELVAVITYDSTYYADSVKGRFTISRDNAKNTVYLQMNSLKPEDTAVYYCAADSYDWGDFDYWGQGTEVTVSS | low polyreactivity |
